Non-standard residues stand in square brackets, D forms with d. No end group written: not given here. Cit = NC(=O)NCCC[C@H](N)C(=O)O
How the values were obtained:
[1] = molecular target: T1, peptide no. 10 (human histone 2A) (human, also: biotin-labelled); assay: ELISA, Ab 0.4 ug/well
T1 construct: also called peptide 10
T1 peptide: TRIIP[Cit]HLQLAI
Protocol: (§1) Biotin and citrulline-containing peptides derived from histone 2A were immobilized on NEUTRAVIDIN®-coated 96-well ELISA plates (0.3 μg/well). CFC-1 and CFC-0 were coated at the same concentration and served as positive and negative controls, respectively, for specific anti-citrulline reactivity and as coating controls. Non-coated wells were used to test for aspecific binding of the antibodies. […] Detection of bound anti-citrulline antibodies was performed by incubating the wells with rabbit anti-human HRP (1:2000) for 1 hour at RT followed by incubation with TMB substrate. The resulting OD (y-axis) is a measure for antibody binding.

[2] = molecular target: T2, peptide no. 9 (human histone 2A) (human, also: biotin-labelled); assay: ELISA, Ab 0.4 ug/well
T2 construct: also called peptide 9
T2 peptide: DNKKT[Cit]IIPRHL
Protocol: as §1

[3] = molecular target: T3, peptide no. 5 (human histone 2A) (human, also: biotin-labelled); assay: ELISA, Ab 0.4 ug/well
T3 construct: also called peptide 5
T3 peptide: VGRVH[Cit]LLRKGN
Protocol: as §1

[4] = molecular target: T4, peptide no. 8 (human histone 2A) (human, also: biotin-labelled); assay: ELISA, Ab 0.4 ug/well
T4 construct: also called peptide 8
T4 peptide: AGNAA[Cit]DNKKTR
Protocol: as §1

CFC-1 [5] = molecular target: T5, CFC-1; assay: ELISA, Ab 0.4 ug/well
T5 construct: Positive control for anti-citrulline reactivity; also called cfc1 XG; Cfc1-peptide
Protocol: as §1

[6] = molecular target: T6, peptide no. 1 (human histone 2A) (human, also: biotin-labelled); assay: ELISA, Ab 0.4 ug/well
T6 construct: also called peptide 1; AAASGXGKQGGK
T6 peptide: AAASG[Cit]GKQGGK
Protocol: as §1

[7] = molecular target: T7, peptide no. 11 (human histone 2A) (human, also: biotin-labelled); assay: ELISA, Ab 0.4 ug/well
T7 construct: also called peptide 11
T7 peptide: LQLAI[Cit]NDEELN
Protocol: as §1

[8] = molecular target: T8, peptide no. 7 (human histone 2A) (human, also: biotin-labelled); assay: ELISA, Ab 0.4 ug/well
T8 construct: also called peptide 7
T8 peptide: GNYSE[Cit]VGAGAP
Protocol: as §1

[9] = molecular target: T9, peptide no. 3 (human histone 2A) (human, also: biotin-labelled); assay: ELISA, Ab 0.4 ug/well
T9 construct: also called peptide 3
T9 peptide: KSRSS[Cit]AGLQFP
Protocol: as §1

[10] = molecular target: T10, peptide no. 12 (human histone 2A) (human, also: biotin-labelled); assay: ELISA, Ab 0.4 ug/well
T10 construct: also called peptide 12
T10 peptide: NKLLG[Cit]VTIAQG
Protocol: as §1

[11] = molecular target: T11, peptide no. 4 (human histone 2A) (human, also: biotin-labelled); assay: ELISA, Ab 0.4 ug/well
T11 construct: also called peptide 4
T11 peptide: QFPVG[Cit]VHRLLR
Protocol: as §1

[12] = molecular target: T12, peptide no. 2 (human histone 2A) (human, also: biotin-labelled); assay: ELISA, Ab 0.4 ug/well
T12 construct: also called peptide 2
T12 peptide: AKAKS[Cit]SSRAGL
Protocol: as §1

[13] = molecular target: T13, peptide no. 6 (human histone 2A) (human, also: biotin-labelled); assay: ELISA, Ab 0.4 ug/well
T13 construct: also called peptide 6
T13 peptide: VHRLL[Cit]KGNYSE
Protocol: as §1

msVim XS/XL = molecular target: T14, msVim XS/XL (mouse, also: biotin-labelled); assay: ELISA, Ab 0.4 ug/well
T14 construct: also called mouse vimentin peptide
T14 peptide: YVT[Cit]SSAV[Cit]L[Cit]SSVP
Protocol: as §1, with “fibrinogen and vimentin” for “histone 2A”
(§2) Biotin-labeled and citrulline-containing fibrinogen and vimentin peptides (Table 5) were also tested for reactivity with the therapeutic antibodies. Peptides were coated on 96-well NEUTRAVIDIN®-ELISA plates.

msFibα XH = molecular target: T15, msFibα XH (mouse, X at position 15 = citrulline; biotin-labelled); assay: ELISA, Ab 0.4 ug/well
T15 peptide: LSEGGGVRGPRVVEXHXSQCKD
Protocol: as §1, with “fibrinogen and vimentin” for “histone 2A”
as §2

msFibα XG = molecular target: T16, msFibα XG (mouse, X at position 8 = citrulline; biotin-labelled); assay: ELISA, Ab 0.4 ug/well
T16 peptide: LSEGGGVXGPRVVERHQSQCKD
Protocol: as §1, with “fibrinogen and vimentin” for “histone 2A”
as §2

[14] = molecular target: T3, peptide no. 5 (human histone 2A); assay: ELISA, Ab 0.0032 ug/well
Protocol: as §1

[15] = molecular target: T17, human recombinant histone 2A (human); assay: ELISA, Ab 0.08 ug/well
T17 construct: Non-deiminated; also called H2A
Text: (§3) The resulting OD (y-axis) is a measure for antibody binding. H1-recombinant histone 1; H1/p2-huPAD2 recombinant histone 1; H1/p4-huPAD4 recombinant histone 1, and so forth (x-axis).

[16] = molecular target: T18, huPAD2-deiminated human recombinant histone 2A (human); assay: ELISA, Ab 0.08 ug/well
T18 construct: also called H2A/p2; histone 2A/p2
Text: as §3

[17] = molecular target: T19, huPAD4-deiminated human recombinant histone 2A (human); assay: ELISA, Ab 0.08 ug/well
T19 construct: also called H2A/p4; histone 2A/p4
Text: as §3

[18] = molecular target: T20, huPAD4-deiminated human recombinant histone 2B (human); assay: ELISA, Ab 0.08 ug/well
T20 construct: also called H2B/p4
Text: as §3

CFC-1 [19] = molecular target: T5, CFC-1; assay: ELISA, Ab 0.08 ug/well
Text: as §3

[20] = molecular target: T21, huPAD4-deiminated human recombinant histone 3 (human); assay: ELISA, Ab 0.08 ug/well
T21 construct: also called H3/p4
Text: as §3

[21] = molecular target: human recombinant histone 4 (human, UniProt P62805 2-103); assay: ELISA, Ab 0.08 ug/well
Text: as §3

[22] = molecular target: T22, huPAD2-deiminated human recombinant histone 3 (human); assay: ELISA, Ab 0.08 ug/well
T22 construct: also called H3/p2; histone 3/p2
Text: as §3

[23] = molecular target: T23, human recombinant histone 2B (human); assay: ELISA, Ab 0.08 ug/well
T23 construct: Non-deiminated; also called H2B
Text: as §3

[24] = molecular target: T24, huPAD2-deiminated human recombinant histone 2B (human); assay: ELISA, Ab 0.08 ug/well
T24 construct: also called H2B/p2
Text: as §3

B1: RhmAb2.102 (antibody, human IgG1, lambda)
heavy: not shown
light: QSVLTQPPSMSAAPGQKVTISCSGSSSNIGNNYVSWYQQVPGTAPKLLIYDDNKRPSGIPGRFSGSKSATSATLGITGLQAGDEADYYCGSWDDNLSVVLFGGGTKLTVLGQPKAAPSVTLFPPSSEELQANKATLVCLISDFYPGAVTVAWKADSSPVKAGVETTTPSKQSNNKYAASSYLSLTPEQWKSHRSYSCQVTHEGSTVEKTVAPTECS
notes: Human IgG1 lambda; also called Rhm2.102
[1]
  OD: 0.051 OD450
[2]
  OD: 0.057 OD450
[3]
  OD: 0.082 OD450
[4]
  OD: 0.061 OD450
CFC-1 [5]
  OD: 3.06 OD450
[6]
  OD: 2.8 OD450
[7]
  OD: 0.064 OD450
[8]
  OD: 0.064 OD450
[9]
  OD: 0.154 OD450
[10]
  OD: 0.061 OD450
[11]
  OD: 0.564 OD450
[12]
  OD: 0.136 OD450
[13]
  OD: 0.333 OD450
msVim XS/XL
  OD: 1.45 OD450
msFibα XH
  OD: 0.076 OD450
msFibα XG
  OD: 0.773 OD450
[14]
  OD: 0.063 OD450
[15]
  OD: 0.06 OD450
[16]
  OD: 1.96 OD450
[17]
  OD: 1.75 OD450
[18]
  OD: 0.052 OD450
CFC-1 [19]
  OD: 2.15 OD450
[20]
  OD: 0.093 OD450
[21]
  OD: 0.067 OD450
[22]
  OD: 0.493 OD450
[23]
  OD: 0.054 OD450
[24]
  OD: 0.053 OD450
